# Test results taken from the RNAGym collection of RNA variant scans (doi:10.1021/acssynbio.7b00057).
# B1: Pistol ribozyme (parent)
# chain: GGGUCGUUGUUCCAUAAUCGCGUGGAUAUGGCACGCAAGUUUCUACCGGGCACCGUAAAUGUCCGACUGGAGCCGUUCGGGCGGCUAUAAACAGACCUCAGGCCCGAAGCGUGGCGGCACCUGCCGCCGGUGGUAAAAAAGAUCGGAAGAGCACACGUCU
# Variants of: B1
# Assay: aptazyme ON/OFF ratio, guanine; higher = stronger switching; co-transcriptional cleavage with and without guanine
row,Variant,aptazyme ON/OFF ratio
1,U7C G9U U11G C12U C13U,1.3
2,U7C G9U U11G C12U C13G,1.11
3,U7C G9U U11G C12U C13A,1.17
4,U7C G9U U11C C12G C13U,1.07
5,U7C G9U U11C C12G C13A,1.05
6,U7C G9U U11C C12G C13G,1.06
7,U7C G9U U10C U11G,1.18
8,U7C U8A G9A U10A U11A,1.22
9,U7C U8A G9A U10A U11C,1.02
10,U7C U8A G9A U10A U11G,1.31
11,U7C G9U U10G U11A C13A,1.09
12,U7C G9U U10G U11A C13U,1.06
13,U7C G9U U10G U11A C13G,1.06
14,U7C G9U U10G U11C C12A C13U,1.17
15,U7C G9U U10G U11C C12A C13G,1.17
16,U7C G9U U10G U11C C12A C13A,1.17
17,U7C G9U U10G C12G,1.12
18,U7C G9U U10G C12A,1.21
19,U7C G9U U10G C12U,1.39
20,U7C G9U U10G U11A C12G C13U,1.12
21,U7C G9U U10G U11A C12G C13A,1.11

row,Variant,aptazyme ON/OFF ratio
1,U7C G9U U10G U11A C12G C13G,1.24
2,U7C U8A G9A U10C U11C C12G C13A,1.13
3,U7C U8A G9A U10C U11C C12G C13U,1.07
4,U7C U8A G9A U10C U11C C12G C13G,1.17
5,U7C U8A C12A,1.3
6,U7C U8A C12G,1.37
7,U7C U8A C12U,1.68
8,U7C U8A G9A U10G C12U C13U,0.977
9,U7C U8A G9A U10G C12U C13G,1.14
10,U7C U8A G9A U10G C12U C13A,1.26
11,U7C U8A G9A U10C U11A C13U,1.16
12,U7C U8A G9A U10C U11A C13A,1.2
13,U7C U8A G9A U10C U11A C13G,1.08
14,U7C G9U U10G U11C,1.09
15,U7C G9U U10G U11A,1.03
16,U7C G9U U10G U11G,1.11
17,U7C U8A G9A U10C U11G C12A,1.05
18,U7C U8A G9A U10C U11G C12U,1.22
19,U7C U8A G9A U10C U11G C12G,1.31
20,U7C U8A G9A U10C U11A C12U,1.28
21,U7C U8A G9A U10C U11A C12G,1.14

row,Variant,aptazyme ON/OFF ratio
1,U7C U8A G9A U10C U11A C12A,1.12
2,U7C G9U U10C U11C C12G,1.02
3,U7C G9U U10C U11C C12U,1.02
4,U7C U8A G9A U10A U11A C12G,1.23
5,U7C U8A G9A U10A U11A C12U,1.19
6,U7C U8A G9A U10A U11A C12A,1.2
7,U7C G9U U11A C12G C13A,1.2
8,U7C G9U U11A C12G C13G,1.24
9,U7C G9U U11A C12G C13U,1.14
10,U7C G9U U11C C12G,1.08
11,U7C G9U U11C C12U,1.16
12,U7C G9U U11C C12A,1.26
13,U7C U8A G9A U10G U11A C12U C13U,1.06
14,U7C U8A G9A U10G U11A C12U C13A,1.11
15,U7C U8A G9A U10G U11A C12U C13G,1.12
16,U7C G9U U11A C12A C13U,1.29
17,U7C G9U U11A C12A C13A,1.25
18,U7C G9U U11A C12A C13G,1.1
19,U7C U8A G9A U10C C12A,1.19
20,U7C U8A G9A U10C C12U,1.58
21,U7C U8A G9A U10C C12G,1.2

row,Variant,aptazyme ON/OFF ratio
1,U7C U8A G9A C13A,1.15
2,U7C U8A G9A C13U,1.18
3,U7C U8A G9A C13G,1.06
4,U7C U8A C12G C13A,1.14
5,U7C U8A C12G C13G,1.23
6,U7C U8A C12G C13U,1.3
7,U7C U8A G9A U10C U11C C12U C13U,1.04
8,U7C U8A G9A U10C U11C C12U C13G,1.04
9,U7C U8A G9A U10C U11C C12U C13A,1.03
10,U7C U8A G9A U10A C12A,1.19
11,U7C U8A G9A U10A C12U,1.22
12,U7C U8A G9A U10A C12G,1.21
13,U7C U8A G9A U10G C12G C13G,1.04
14,U7C U8A G9A U10G C12G C13U,1.27
15,U7C U8A G9A U10G C12G C13A,1.1
16,U7C U8A G9A U10A U11G C12G,1.12
17,U7C U8A G9A U10A U11G C12A,1.05
18,U7C U8A G9A U10A U11G C12U,1.14
19,U7C G9U U10G C13G,1.06
20,U7C G9U U10G C13U,1.37
21,U7C G9U U10G C13A,1.25
